Tested on: MS2 coat protein
Test: apparent KD of MS2 coat protein; designed switch direction (-1 OFF switch, 1 ON switch): -1; higher = weaker reporter binding
How it was run: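 Designed RNA switches with common flanks were made on Illumina chips by stalled E. coli RNA polymerase. Titration with SNAP-549-labelled MS2 coat protein doubled from 0.7 or 1.5 nM up to 3 µM. Apparent KD is each design's median over clusters after curve-fitting normalised fluorescence.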

[1] = Eterna round: R95, input ligand: microRNA oligo, concentration not stated
[2] = input ligand: microRNA oligo, concentration not stated

## CUCUUGGCAGGAUAUGCAAUUUUAGACAUGAGGAUCACCCAUGUGAUCAUUCCAUAUUAUGCAGAAGGGCCUAAAC [JR_E5_Sub049] (puzzle: Exclusion 5)
[1]
  apparent KD of MS2 coat protein: 54.3 nM

## CUAGCGUAUGUAGGAUAUCGGACUGUUUCAGUCUGAGAAGGACAUGAGGAUCACCCAUGUAUUGCUACGUGAGUAGCUCGCUAG [JL ENG1 3.93] (Eterna round: R96, puzzle: Exclusion NG 1)
Input ligand: FMN 200 uM
  apparent KD of MS2 coat protein: 30.1 nM
[2]
  apparent KD of MS2 coat protein: 16.8 nM
Input ligand: none
  apparent KD of MS2 coat protein: 19.6 nM

## CCCUGCAACUGAGGAUAUCACGGACACCGACGUUGAGAAGGCAGACAUGAGGAUCACCCAUGUGAUUUCUCAAUGCUAAACAUU (Eterna round: R96, puzzle: Exclusion NG 1)
Input ligand: FMN 200 uM
  apparent KD of MS2 coat protein: 66.4 nM
[2]
  apparent KD of MS2 coat protein: 29.6 nM
Input ligand: none
  apparent KD of MS2 coat protein: 36.8 nM

## AGAUAGUGCGGAGGAUAUCUUAAUAGAAAGAAUAGAGAAGGCUGACAUGAGGAUCACCCAUGUGAGGUCUUGAGACUACAUGGU [Prohibition 35 - Jieux - Exclusion NG 1] (Eterna round: R96, puzzle: Exclusion NG 1)
Input ligand: FMN 200 uM
  apparent KD of MS2 coat protein: 66.3 nM
[2]
  apparent KD of MS2 coat protein: 12.9 nM
Input ligand: none
  apparent KD of MS2 coat protein: 18.2 nM

## CUUUACAUGCUGAGAUCCUACAUGAGGAUCACCCAUGUGGUCCGGUGACGUGAGUCACCGGACUUAGCUCGUCUUGU [salish99_S_TOV1_R5_098] (Eterna round: R97, puzzle: Sensor, turn-off variant 1)
Input ligand: FMN 200 uM
  apparent KD of MS2 coat protein: 169 nM
Input ligand: none
  apparent KD of MS2 coat protein: 336 nM

## CGAUGUUAUGUCAGGAUAUGCGUUGCGAAAGCAAUGCAGAAGGGACAUGAGGAUCACCCAUGUCCUAACCAUCG [Omei A 5] (puzzle: Brourd's mod of Exclusion 4)
[1]
  apparent KD of MS2 coat protein: 12.7 nM

## AAGGGUGCUUUCAGAACGACAUGAGGAUCACCCAUGUAGACUGAGGAUAUCUACUUCUAAGGACGGGAGAAGGUAGUGUAAUGC [Ex NG3 #67] (Eterna round: R96, puzzle: Exclusion NG 3)
Input ligand: FMN 200 uM
  apparent KD of MS2 coat protein: 19.7 nM
[2]
  apparent KD of MS2 coat protein: 15.9 nM
Input ligand: none
  apparent KD of MS2 coat protein: 21.5 nM

## GUUUACAAGCUAAGAUCCUACAUGAGGAUCACCCAUGUGGUCCGGUGACGUGAGUCACCGGACUUAGCUCGUCUUGU [salish99_S_TOV1_R5_001] (Eterna round: R97, puzzle: Sensor, turn-off variant 1)
Input ligand: FMN 200 uM
  apparent KD of MS2 coat protein: 86.8 nM
Input ligand: none
  apparent KD of MS2 coat protein: 90.4 nM

## GAUAUGGGAGUUAGGAUAUGUCGCCCGAACGGGUAAUAGAAGGGACUUGAGGAUCACCCAAGUCAUAAAGAAUA [Rainan] (Eterna round: R97, puzzle: Brourd's mod of Exclusion 4)
Input ligand: FMN 200 uM
  apparent KD of MS2 coat protein: 11.6 nM
Input ligand: none
  apparent KD of MS2 coat protein: 14.6 nM

## GAACCGCGAGGAUAUACAGUCGAGUCCAUUACGUGUCUCGGACUUGAGGAUCACCCAAGUAGAAGGCGUCUCAG [salish99_ex2_r4_634] (Eterna round: R97, puzzle: Exclusion 2)
Input ligand: FMN 200 uM
  apparent KD of MS2 coat protein: 96.3 nM
Input ligand: none
  apparent KD of MS2 coat protein: 188 nM

## CCAGUGUAAGGAUAUGACAAUGGUAUCUUCGGAUACCAUUGUCAGAAGGUACAUGAGGAUCACCCAUGUAACAC [Ex4-3: 12] (puzzle: Exclusion 4)
[1]
  apparent KD of MS2 coat protein: 15.3 nM

## AAUGGGCAAGCAUGAUCCCACAUGAGGAUCACCCAUGUGUUCGUCUUAUAGGCUGCUGAGGCUUUUGCCUCGGUGGC [LRO Sensor-off var1-03 loose mod of D91 from Mat747] (Eterna round: R97, puzzle: Sensor, turn-off variant 1)
Input ligand: FMN 200 uM
  apparent KD of MS2 coat protein: 850 nM
Input ligand: none
  apparent KD of MS2 coat protein: 1370 nM

## AGGGCUGCUCAGGAUAUCCGUAAAAGCCGAGAAGGAGAAGGGAGCACAUGAGGAUCACCCAUGUGAUCCGAAAA [Verila] (puzzle: Exclusion 6)
[1]
  apparent KD of MS2 coat protein: 19.7 nM

## GGACCGAUAGGAUAUGUCGUUGCAUACAUGAGGAUCACCCAUGUGAACCCUUGGUGAACUGCAGAAGGAUUGCGCA [Eternabot (L1) Solution 41] (Eterna round: R97, puzzle: Exclusion 5)
Input ligand: FMN 200 uM
  apparent KD of MS2 coat protein: 240 nM
Input ligand: none
  apparent KD of MS2 coat protein: 221 nM

## GAUACCUCAGUGAGGAUAUUUUAUAGAUUAACCAGGAAGAAGGCACAUGAGGAUCACCCAUGUCCACGGCAGCC [Eternabot (L1) Solution 10] (Eterna round: R97, puzzle: Brourd's mod of Exclusion 4)
Input ligand: FMN 200 uM
  apparent KD of MS2 coat protein: 23.2 nM
Input ligand: none
  apparent KD of MS2 coat protein: 20.9 nM

## AAGAAUUACAUGAGGAUCACCCAUGUAGAGUGGGAAGAGAGAUAGGAUAUGAUGUGAGAAUCAUAUCAGAAGGAUCGAGACUCA [AK ExNG3-2] (Eterna round: R96, puzzle: Exclusion NG 3)
Input ligand: FMN 200 uM
  apparent KD of MS2 coat protein: 144 nM
[2]
  apparent KD of MS2 coat protein: 105 nM
Input ligand: none
  apparent KD of MS2 coat protein: 138 nM

## AAUAACAAGCAAGAUCCUAACAUGAGGAUCACCCAUGUGCUCGUCUUGUAAAGUACUAUCACGAAAGUGAUAGUACA [Sensor 3, v1 - 48] (Eterna round: R96, puzzle: Sensor v3, turn-off variant 1)
Input ligand: FMN 200 uM
  apparent KD of MS2 coat protein: 22.3 nM
[2]
  apparent KD of MS2 coat protein: 437 nM
Input ligand: none
  apparent KD of MS2 coat protein: 25.5 nM

## GGAGCGGAAGGAUAUGCUGCGGGAUUGCAUGGAAAGAAAAUACAUGAGGAUCACCCAUGUAGAAGGUCCGUGAA [Uslequ] (puzzle: Exclusion 2)
[1]
  apparent KD of MS2 coat protein: 24.8 nM

## ACAAGCAGAGGUGUGCGACACAUGAGGAUCACCCAUGUCGUCUGCCUCUGUGCAGAGGCUUUUUGCUCGUACUUAUU [Sensor V1 S3] (Eterna round: R97, puzzle: Sensor, turn-off variant 1)
Input ligand: FMN 200 uM
  apparent KD of MS2 coat protein: 20.1 nM
Input ligand: none
  apparent KD of MS2 coat protein: 19.3 nM

## ACAUGAGGAUCACCCAUGUACGGUUGGUUUUCUCCGGCUGUUGAGGAUAUAGUCCGGUAUCCGCGCUAGAAGGUGAGGGUUGGC [Aenatbe mod 11] (Eterna round: R96, puzzle: Exclusion NG 3)
Input ligand: FMN 200 uM
  apparent KD of MS2 coat protein: 104 nM
[2]
  apparent KD of MS2 coat protein: 74.6 nM
Input ligand: none
  apparent KD of MS2 coat protein: 87.6 nM

## UUCUUUACACGAGGAUAUCAUACAUGAGGAUCACCCAUGUGGCUGUGUCUGUUUUUAUGUAUUAUUGAGAAGGCGUUUUUCUUU [JR_ExcNG2_Sub075] (Eterna round: R96, puzzle: Exclusion NG 2)
Input ligand: FMN 200 uM
  apparent KD of MS2 coat protein: 105 nM
[2]
  apparent KD of MS2 coat protein: 28.3 nM
Input ligand: none
  apparent KD of MS2 coat protein: 33 nM

## UUUGUCAGCGUCGAAGUUUACAUGAGGAUCACCCAUGUGAUCAACACAGGCAUAUAAUUAGUAAUGAGUUCGUCUUC [Eternabot (L2) Solution 40] (Eterna round: R97, puzzle: Sensor, turn-off variant 1)
Input ligand: FMN 200 uM
  apparent KD of MS2 coat protein: 24.9 nM
Input ligand: none
  apparent KD of MS2 coat protein: 30.2 nM

## UUCUUACAUGAGGAUCACCCAUGUCAGGAUAUCUCCGCACUGCGCUUGCGCAGUGCAUAGAGAAGGGACAGGCU [JL ViennaUCT Aner mod 4] (puzzle: Exclusion 1)
[1]
  apparent KD of MS2 coat protein: 45.7 nM

## AGAAACUCAAGAGGAUAUCACAUGAGGAUCACCCAUGUAUAGCGCGCUAUGCUAGUCCUCGUAUAUGAGAAGGUUUGAAAUAAG [Mat - Exclusion NG 2 - Mod of JL - D80] (Eterna round: R96, puzzle: Exclusion NG 2)
Input ligand: FMN 200 uM
  apparent KD of MS2 coat protein: 16.4 nM
[2]
  apparent KD of MS2 coat protein: 12.6 nM
Input ligand: none
  apparent KD of MS2 coat protein: 17.9 nM

## AGCUGUGAGCGAGGAUAUCUGCUGUUUUCGGUCGGAGAAGGCGCGGACAGAACAUGAGGAUCACCCAUGUGUAUGGGCGGCCUC [Xexeenve] (Eterna round: R96, puzzle: Exclusion NG 1)
Input ligand: FMN 200 uM
  apparent KD of MS2 coat protein: 119 nM
[2]
  apparent KD of MS2 coat protein: 44.5 nM
Input ligand: none
  apparent KD of MS2 coat protein: 73.7 nM

## CAGUACAGAGGAUAUACAUGAGGAUCACCCAUGUGUUUCAGCUAGGAGACUAGCGAAAGUAGAAGGCUGUACUA [salish99_ex3_r4_003] (Eterna round: R97, puzzle: Exclusion 3)
Input ligand: FMN 200 uM
  apparent KD of MS2 coat protein: 25.7 nM
Input ligand: none
  apparent KD of MS2 coat protein: 9.41 nM

## UCGCAAGCCAUUCCUACUCACAUGAGGAUCACCCAUGUCCUCAGGUUCGUCGUGUCUCUCUGCAAACACUUGCAGAG [Eternabot (L2) Solution 7] (Eterna round: R97, puzzle: Sensor, turn-off variant 1)
Input ligand: FMN 200 uM
  apparent KD of MS2 coat protein: 145 nM
Input ligand: none
  apparent KD of MS2 coat protein: 762 nM

## GGUUGGCGAGGAUAUACAUGAGGAUCACCCAUGUGAGAGAAAAAAGUGAGGAACAAAAGUAGAAGGCGCUGACG [salish99_ex3_r3_033] (puzzle: Exclusion 3)
Eterna round: R95, input ligand: FMN 200 uM
  apparent KD of MS2 coat protein: 184 nM
[1]
  apparent KD of MS2 coat protein: 48.5 nM
Eterna round: R95, input ligand: none
  apparent KD of MS2 coat protein: 58.2 nM

## CUCGUGUAAGGAUAUGCGAGCCGCGGAAAUACACCGCGGAGGUAGAAGGUACAUGAGGAUCACCCAUGUAAAAC [Edisora] (puzzle: Exclusion 4)
[1]
  apparent KD of MS2 coat protein: 26.6 nM

## AACCCUCGUCAAGGAUAUACAUAGAAAAGCUUGGUAGAAGGUGACAUGAGGAUCACCCAUGUAUAAAGUUCGUCCAAUCGAACC [Diesisra] (Eterna round: R96, puzzle: Exclusion NG 1)
Input ligand: FMN 200 uM
  apparent KD of MS2 coat protein: 139 nM
[2]
  apparent KD of MS2 coat protein: 80.9 nM
Input ligand: none
  apparent KD of MS2 coat protein: 110 nM

## AUUUAUGGAGGAUAUACUUGAGGAUCACCCAAGUGGAGUCCCUUUUGGGCGGUAAAUAGUAGAAGGCCGUCUUA [jl-ex3-4.48 ViennaUCT mod] (Eterna round: R97, puzzle: Exclusion 3)
Input ligand: FMN 200 uM
  apparent KD of MS2 coat protein: 20.9 nM
Input ligand: none
  apparent KD of MS2 coat protein: 16.3 nM

## UUUUGGUAAGGAUAUGAAUCGAUCUCGGAAACGAGAUCGAUUCAGAAGGUACAUGAGGAUCACCCAUGUUGAUU [Mod of Brourd 7 - Jieux - Exclusion 4] (Eterna round: R97, puzzle: Exclusion 4)
Input ligand: FMN 200 uM
  apparent KD of MS2 coat protein: 119 nM
Input ligand: none
  apparent KD of MS2 coat protein: 26 nM

## CGAGGUAGAGGAUAUACGUGGAUGUAAAUUCAUGAUAUUCUACAUGAGGAUCACCCAUGUAGAAGGCUAUAGCG [JR_Ex2_Sub077] (Eterna round: R97, puzzle: Exclusion 2)
Input ligand: FMN 200 uM
  apparent KD of MS2 coat protein: 26.9 nM
Input ligand: none
  apparent KD of MS2 coat protein: 18 nM

## AAAAAUCGAGGAUAUACAUGAGGAUCACCCAUGUGGGACCAAGAAAACACAAAAGAAAGUAGAAGGCGAUAAAA [Ex 3 May 23] (Eterna round: R96, puzzle: Exclusion 3)
Input ligand: FMN 200 uM
  apparent KD of MS2 coat protein: 110 nM
[2]
  apparent KD of MS2 coat protein: 25.8 nM
Input ligand: none
  apparent KD of MS2 coat protein: 31.7 nM

Reference: the supplement of paper PMC9170038
